Measured values as given in patent publication US20250043019A1 (Janssen / Centocor, published 2025).

T1: human CD79b and CD20 co-expressed on the surface of B-lymphoma cell lines or primary B cells (human, UniProt P11836 1-297)
T1 sequence 1: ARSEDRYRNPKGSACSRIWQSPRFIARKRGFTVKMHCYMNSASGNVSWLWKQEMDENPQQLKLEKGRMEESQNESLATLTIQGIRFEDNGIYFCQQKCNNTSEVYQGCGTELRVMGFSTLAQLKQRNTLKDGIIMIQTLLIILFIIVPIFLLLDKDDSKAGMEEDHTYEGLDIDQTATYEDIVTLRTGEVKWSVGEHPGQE
T1 sequence 2: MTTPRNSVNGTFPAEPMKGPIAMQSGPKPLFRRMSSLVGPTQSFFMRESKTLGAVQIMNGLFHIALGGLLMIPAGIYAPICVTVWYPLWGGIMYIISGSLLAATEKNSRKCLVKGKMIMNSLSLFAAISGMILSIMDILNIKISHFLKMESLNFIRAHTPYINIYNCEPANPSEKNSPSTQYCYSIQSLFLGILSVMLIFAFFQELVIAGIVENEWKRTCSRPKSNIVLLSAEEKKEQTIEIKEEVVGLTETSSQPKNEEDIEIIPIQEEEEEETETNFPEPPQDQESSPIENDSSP

T2: human CD79b on the cell surface (human, UniProt P40259 29-229)
T2 sequence: T1 sequence 1

B1: C923B95 CD79bxCD20xCD3 trispecific antibody (other)
heavy: QVQLQESGPGLVKPSQTLSLTCTVSGVSISNYYWSWIRQPPGKGLEWIGRISPSGRTNYNPSLKSRVTMSLDASKNQFSLKLSSVTAADTAVYYCARGEYSGTYSYSFDIWGQGTMVTVSSASTKGPSVFPLAPSSKSTSGGTAALGCLVKDYFPEPVTVSWNSGALTSGVHTFPAVLQSSGLYSLSSVVTVPSSSLGTQTYICNVNHKPSNTKVDKKVEPKSCDKTHTCPPCPAPEAAGGPSVFLFPPKPKDTLMISRTPEVTCVVVSVSHEDPEVKFNWYVDGVEVHNAKTKPREEQYNSTYRVVSVLTVLHQDWLNGKEYKCKVSNKALPAPIEKTISKAKGQPREPQVYTLPPSREEMTKNQVSLSCAVKGFYPSDIAVEWESNGQPENNYKTTPPVLDSDGSFFLVSKLTVDKSRWQQGNVFSCSVMHEALHNRFTQKSLSLSPGK
light: DIQMTQSPSSLSASVGDRVTITCRSSQSLFDSDDGNTYLDWFQQKPGQSPKLLIQTLSYRASGVPSRFSGSGSGTDFTLTISSLQPEDFATYYCMQRMEFPLTFGGGTKVEIKRTVAAPSVFIFPPSDEQLKSGTASVVCLLNNFYPREAKVQWKVDNALQSGNSQESVTEQDSKDSTYSLSSTLTLSKADYEKHKVYACEVTHQGLSSPVTKSFNRGEC
chain: EIVLTQSPATLSASPGERVTLSCSASSSVSYMNWYQQKPGQAPRRWIYDSSKLASGVPARFSGSGSGRDYTLTISSLEPEDFAVYYCQQWSRNPPTFGGGTKVEIKGGSEGKSSGSGSESKSTGGSQVQLVQSGAEVKKPGSSVKVSCKASGYTFTRSTMHWVRQAPGQGLEWMGYINPSSAYTNYAQKFQGRVTLTADKSTSTAYMELSSLRSEDTAVYYCASPQVHYDYGGFPYWGQGTLVTVSSEPKSSDKTHTCPPCPAPEAAGGPSVFLFPPKPKDTLMISRTPEVTCVVVSVSHEDPEVKFNWYVDGVEVHNAKTKPREEQYNSTYRVVSVLTVLHQDWLNGKEYKCKVSNKALPAPIEKTISKAKGQPREPQVYTLPPSREEMTKNQVSLWCLVKGFYPSDIAVEWESNGQPENNYKTTPPVLDSDGSFFLYSKLTVDKSRWQQGNVFSCSVMHEALHNHYTQKSLSLSPGKGGSEGKSSGSGSESKSTGGSAIQLTQSPSSLSASVGDRVTITCRASSSVSYIHWFQQKPGKAPKPLIYATSNLASGVPSRFSGSGSGTDFTLTISSLQPEDFATYYCQQWTSNPPTFGQGTKLEIKGGSEGKSSGSGSESKSTGGSQVQLVQSGAEVKKPGSSVKVSCKASGYTFTSYNMHWVRQAPGQGLEWMGAIYPGNGDTSYAQKFQGRVTITADKSTSTAYMELSSLRSEDTAVYYCARSTYYGGDWYFNVWGQGTLVTVSS
B2: C923B36 CD79bxCD20xCD3 trispecific antibody (other)
heavy: QVQLQESGPGLVKPSETLSLTCSVSGASISSFYWSWIRQPADEGLEWIGRISPSGKTNYIPSLKSRIIMSLDASKNQFSLRLNSVTAADTAMYYCARGEYSGTYSYSFDVWGQGTMVTVSSASTKGPSVFPLAPSSKSTSGGTAALGCLVKDYFPEPVTVSWNSGALTSGVHTFPAVLQSSGLYSLSSVVTVPSSSLGTQTYICNVNHKPSNTKVDKKVEPKSCDKTHTCPPCPAPEAAGGPSVFLFPPKPKDTLMISRTPEVTCVVVSVSHEDPEVKFNWYVDGVEVHNAKTKPREEQYNSTYRVVSVLTVLHQDWLNGKEYKCKVSNKALPAPIEKTISKAKGQPREPQVYTLPPSREEMTKNQVSLSCAVKGFYPSDIAVEWESNGQPENNYKTTPPVLDSDGSFFLVSKLTVDKSRWQQGNVFSCSVMHEALHNRFTQKSLSLSPGK
light: DIVMTQSPLSLSVTPGEPASISCRSSESLLDSEDGNTYLDWFLQKPGQSPQLLIYTLSYRASGVPDRFSGSGSDTDFTLHISSLEAEDVGLYYCMQRMEFPLTFGQGTKVEIKRTVAAPSVFIFPPSDEQLKSGTASVVCLLNNFYPREAKVQWKVDNALQSGNSQESVTEQDSKDSTYSLSSTLTLSKADYEKHKVYACEVTHQGLSSPVTKSFNRGEC
chain: B1 chain
B3: C923B73 CD79bxCD20xCD3 trispecific antibody (other)
heavy: QVQLQQSGPGLVKPSQTLSLTCAISGDSVSSNSATWNWIRQSPSRGLEWLGRTYYRSKWYNDYTVSVKSRITINPDTSKNQFSLQLNSVTPEDTAVYYCTRVDIAFDYWGQGTLVTVSSASTKGPSVFPLAPSSKSTSGGTAALGCLVKDYFPEPVTVSWNSGALTSGVHTFPAVLQSSGLYSLSSVVTVPSSSLGTQTYICNVNHKPSNTKVDKKVEPKSCDKTHTCPPCPAPEAAGGPSVFLFPPKPKDTLMISRTPEVTCVVVSVSHEDPEVKFNWYVDGVEVHNAKTKPREEQYNSTYRVVSVLTVLHQDWLNGKEYKCKVSNKALPAPIEKTISKAKGQPREPQVYTLPPSREEMTKNQVSLSCAVKGFYPSDIAVEWESNGQPENNYKTTPPVLDSDGSFFLVSKLTVDKSRWQQGNVFSCSVMHEALHNRFTQKSLSLSPGK
light: QTVVTQPPSVSEAPRQRVTISCSGSSSNIGNHGVNWYQQLPGKAPKLLIYNDDLLPSGVSDRFSGSTSGTSGSLAISGLQSEDEADYYCAAWDDSLNGVVFGGGTKLTVLGQPKAAPSVTLFPPSSEELQANKATLVCLISDFYPGAVTVAWKADSSPVKAGVETTTPSKQSNNKYAASSYLSLTPEQWKSHRSYSCQVTHEGSTVEKTVAPTECS
chain: B1 chain
B4: 79C3B645 CD79bxCD3 bispecific antibody (bispecific antibody, human IgG1, lambda, L234A L235A)
heavy: B3 heavy
light: B3 light
chain: EIVLTQSPATLSASPGERVTLSCSASSSVSYMNWYQQKPGQAPRRWIYDSSKLASGVPARFSGSGSGRDYTLTISSLEPEDFAVYYCQQWSRNPPTFGGGTKVEIKGGSEGKSSGSGSESKSTGGSQVQLVQSGAEVKKPGSSVKVSCKASGYTFTRSTMHWVRQAPGQGLEWMGYINPSSAYTNYAQKFQGRVTLTADKSTSTAYMELSSLRSEDTAVYYCASPQVHYDYGGFPYWGQGTLVTVSSEPKSSDKTHTCPPCPAPEAAGGPSVFLFPPKPKDTLMISRTPEVTCVVVSVSHEDPEVKFNWYVDGVEVHNAKTKPREEQYNSTYRVVSVLTVLHQDWLNGKEYKCKVSNKALPAPIEKTISKAKGQPREPQVYTLPPSREEMTKNQVSLWCLVKGFYPSDIAVEWESNGQPENNYKTTPPVLDSDGSFFLYSKLTVDKSRWQQGNVFSCSVMHEALHNHYTQKSLSLSPGK
B5: 79C3B650 CD79bxCD3 bispecific antibody (bispecific antibody, human IgG1, kappa, L234A L235A)
heavy: B1 heavy
light: B1 light
chain: B4 chain
B6: 79C3B605 CD79bxCD3 bispecific antibody (bispecific antibody, human IgG1, kappa, L234A L235A)
heavy: B2 heavy
light: B2 light
chain: B4 chain

Target: T1, human CD79b and CD20 co-expressed on …
Test: cell-based or functional assay

B1 was tested. Which “IC50, T-cell killing of OCI-Ly10 (Incucyte)” value (“IC50 … of OCI-Ly10 (Incucyte)” below) did it give?
The value was 14.8 nM.

How did the “IC50 … of OCI-Ly10 (Incucyte)” value turn out when B2 was run?
Its value is 42 nM.

With B3 as the binder, how does the “IC50 … of OCI-Ly10 (Incucyte)” value read?
Its value is 132 nM.

Target: T2, human CD79b on the cell surface
Test: cell-based or functional assay

With B4 as the binder, how does the “IC50 … of OCI-Ly10 (Incucyte)” value read?
The value was 18 nM.

Which “IC50 … of OCI-Ly10 (Incucyte)” value does the source give for B5 here?
Its value is 7 nM.

B6 was tested. Which “IC50 … of OCI-Ly10 (Incucyte)” value did it give?
Its value is 54.3 nM.

Target: T1, human CD79b and CD20 co-expressed on …
Test: cell-based or functional assay
Remark: another data set of the same source

For B1, which “IC50, T-cell killing of HBL-1 (Incucyte)” value is on record?
Its value is 4.89 nM.

For B2, which “IC50, T-cell killing of HBL-1 (Incucyte)” value is on record?
Its value is 31 nM.

For B3, which “IC50, T-cell killing of HBL-1 (Incucyte)” value is on record?
Its value is 6.8 nM.

Target: T2, human CD79b on the cell surface
Test: cell-based or functional assay
Remark: another data set of the same source

B4 was tested. Which “IC50, T-cell killing of HBL-1 (Incucyte)” value did it give?
Its value is 7.19 nM.

For B5, which “IC50, T-cell killing of HBL-1 (Incucyte)” value is on record?
The value was 43.3 nM.

How did the “IC50, T-cell killing of HBL-1 (Incucyte)” value turn out when B6 was run?
The value was 29.5 nM.
